Numbering of substitutions follows the chain as printed. In names and notes the source's numbering stands.
B1: biotinylated recombinant wild-type DP4 (extracellular domains of DPA1*01:03 and wild-type DPB1*04:01 with leucine zippers) (peptide-MHC)
MHC II alpha: IKADHVSTYAAFVQTHRPTGEFMFEFDEDEMFYVDLDKKETVWHLEEFGQAFSFEAQGGLANIAILNNNLNTLIQRSNHTQATNDPPEVTVFPKEPVELGQPNTLICHIDKFFPPVLNVTWLCNGELVTEGVAESLFLPRTDYSFHKFHYLTFVPSAEDFYDCRVEHWGLDQPLLKHWEAQEPIQMPETTETGGGGSLEIRAAFLRQRNTALRTEVAELEQEVQRLENEVSQYETRYGPLGGGKGSHHHHHHHHHH
MHC II beta: RATPENYLFQGRQECYAFNGTQRFLERYIYNREEFARFDSDVGEFRAVTELGRPAAEYWNSQKDILEEKRAVPDRMCRHNYELGGPMTLQRRVQPRVNVSPSKKGPLQHHNLLVCHVTDFYPGSIQVRWFLNGQEETAGVVSTNLIRNGDWTFQILVMLEMTPQQGDVYTCQVEHTSLDSPVTVEWKAQSDSARSKGGGGSLEIEAAFLERENTALETRVAELRQRVQRLRNRVSQYRTRYGPLGGGKGSGLNDIFEAQKIEWHE
notes: also called biotinylated wild-type DP4 (ligand)
B2: biotinylated recombinant DP4^L112W/V141M (extracellular domains of DPA1*01:03 and DPB1*04:01 L112W/V (peptide-MHC)
MHC II alpha: B1 MHC II alpha
MHC II beta: B1 MHC II beta with L112W, V141M
notes: also called DPR^L112/V141M; biotinylated DP4^L112W/V141M (ligand)

What was measured:
[1] = biological target: T1, recombinant 10x His-tagged CD4 protein (extracellular domain of human CD4, GS linker, 10x histidine tag) (human, UniProt P01730 26-390); test: biolayer interferometry
T1 construct: also called recombinant CD4; sCD4 (analyte)

[2] = biological target: T1, recombinant 10x His-tagged CD4 protein …; test: biolayer interferometry KD against the previously estimated KD >2 mM between CD4 and HLA class II
[3] = biological target: T1, recombinant 10x His-tagged CD4 protein …; test: biolayer interferometry (Octet Red), biotinylated DP4 on streptavidin sensors, CD4 as analyte, steady-state analysis

Binder | binding result [1] | fold improvement in the binding affinity [2] [fold] | Kd [3] [µM]
B1 | no binding (tested: 26 µM) | – | –
B2 | – | ≥ 200 | 8.9
